Results: the supplement of paper PMC7125110
± gives the standard error. Fewer inactive variants are shown than the library holds.

B1: glmS ribozyme (parent)
chain: AUAAAAGCGCCAGAACUACAGAAAUGUAGUUGACGAGGAGGAGGUUUAUCGAAUUUUCGGCGGAUGCCUCCAAA

Assays:
Details in all cases: with glucosamine-6-phosphate
glucosamine-6-phosphate [1] = variants of: B1; test: self-cleavage kobs at 40 uM GlcN6P; higher = faster cleavage; RNA array
Procedure, shortened: (§1)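 Glucosamine-6-phosphate (40 μM to 10 mM) in HEPES/KCl/Mg(OAc)2 buffer was flowed over sequenced MiSeq chips, and tiles were imaged over ~14 h. Barcoded ribozyme variants there had been transcribed in situ by E. coli RNA polymerase and were tracked through a hybridised Cy3 probe at 37 °C. One- or two-exponential decay fits to per-tile medians, normalised to baseline and to non-cleaving reference variants, gave kobs. kcat and KM came from weighted Michaelis–Menten fits across concentrations.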

glucosamine-6-phosphate [2] = variants of: B1; test: self-cleavage kobs at 640 uM GlcN6P; higher = faster cleavage; RNA array
Procedure, shortened: as §1

glucosamine-6-phosphate [3] = variants of: B1; test: self-cleavage kobs at 160 uM GlcN6P; higher = faster cleavage; RNA array
Procedure, shortened: as §1

glucosamine-6-phosphate [4] = variants of: B1; test: self-cleavage kobs at 2500 uM GlcN6P; higher = faster cleavage; RNA array
Procedure, shortened: as §1

glucosamine-6-phosphate [5] = variants of: B1; test: self-cleavage kobs at 10000 uM GlcN6P; higher = faster cleavage; RNA array
Procedure, shortened: as §1

Variant	self-cleavage kobs at 40 uM GlcN6P (glucosamine-6-phosphate [1]) [s⁻¹]	self-cleavage kobs at 640 uM GlcN6P (glucosamine-6-phosphate [2]) [s⁻¹]	self-cleavage kobs at 160 uM GlcN6P (glucosamine-6-phosphate [3]) [s⁻¹]	self-cleavage kobs at 2500 uM GlcN6P (glucosamine-6-phosphate [4]) [s⁻¹]	self-cleavage kobs at 10000 uM GlcN6P (glucosamine-6-phosphate [5]) [s⁻¹]
G51C A53C	< 1e-05	< 1e-05	–	–	–
U30C G43U C70A	< 1e-05	–	–	–	–
G51C U57G	< 1e-05	< 1e-05	< 1e-05	< 1e-05	–
C16U C61G U65G	< 1e-05	–	–	–	–
A48G G51U	< 1e-05	–	< 1e-05	–	–
A52C G62U C71A	< 1e-05	–	–	< 1e-05	–
G59C G60U	< 1e-05	< 1e-05	< 1e-05	< 1e-05	< 1e-05
G32C G44C U55C C68A C70U	< 1e-05	–	–	< 1e-05	–
U54A U69C	0.000835 ± 0.00028	0.000282 ± 6e-05	0.000323 ± 8.9e-05	0.000214 ± 6.2e-05	0.000426 ± 0.00011
C34G C50A	< 1e-05	< 1e-05	–	–	–
C8G C10G C11U A33G U47C C70A C71A	< 1e-05	–	–	–	–
G7U G9U	< 1e-05	< 1e-05	< 1e-05	< 1e-05	< 1e-05
C8U G44U	< 1e-05	< 1e-05	< 1e-05	< 1e-05	< 1e-05
C11U G35A	< 1e-05	< 1e-05	< 1e-05	< 1e-05	< 1e-05
A18G	0.00161 ± 0.00045	–	–	–	0.0231 ± 0.01
C16A A33U G38C	< 1e-05	–	–	< 1e-05	–
G9C G51C	< 1e-05	< 1e-05	< 1e-05	< 1e-05	< 1e-05
A33G C50G G66U	0.000106 ± 2.6e-05	0.000115 ± 5.2e-05	–	0.000301 ± 0.0001	5.3e-05 ± 2.2e-05
G38U C61A C67U	8.86e-05 ± 3e-05	–	–	–	8.02e-05 ± 2.6e-05
G32A G44C C71G	< 1e-05	–	–	–	< 1e-05
G35A A53C	< 1e-05	< 1e-05	< 1e-05	–	< 1e-05
G29C A36U	< 1e-05	< 1e-05	–	–	–
C10G U54G	< 1e-05	< 1e-05	< 1e-05	< 1e-05	–
G13C U57C	< 1e-05	< 1e-05	< 1e-05	–	–
G7U G29C C61U	< 1e-05	–	–	–	–

Variant	self-cleavage kobs at 40 uM GlcN6P (glucosamine-6-phosphate [1]) [s⁻¹]	self-cleavage kobs at 640 uM GlcN6P (glucosamine-6-phosphate [2]) [s⁻¹]	self-cleavage kobs at 160 uM GlcN6P (glucosamine-6-phosphate [3]) [s⁻¹]	self-cleavage kobs at 2500 uM GlcN6P (glucosamine-6-phosphate [4]) [s⁻¹]	self-cleavage kobs at 10000 uM GlcN6P (glucosamine-6-phosphate [5]) [s⁻¹]
U31G G44A	< 1e-05	–	–	5.95e-05 ± 2.1e-05	9.7e-05 ± 2.6e-05
G35C C61U	< 1e-05	< 1e-05	< 1e-05	< 1e-05	< 1e-05
G43U C50U	< 1e-05	< 1e-05	< 1e-05	< 1e-05	< 1e-05
U30C G38U C61U	< 1e-05	–	–	–	–
C10U C16G G35C A42U U57G G59A	< 1e-05	–	–	–	–
G13C A39U G59U	< 1e-05	–	–	–	–
C16G A36G	< 1e-05	< 1e-05	< 1e-05	–	< 1e-05
G44A C68G	< 1e-05	< 1e-05	< 1e-05	< 1e-05	< 1e-05
G32C A64C	< 1e-05	–	< 1e-05	< 1e-05	< 1e-05
A6C A52U G60U	< 1e-05	–	–	–	–
G32U C58G A64G C67A	7.51e-05 ± 2.6e-05	–	–	–	0.000152 ± 2.4e-05
G32U C58G G60U	< 1e-05	–	–	–	–
G32A C67G C70U	< 1e-05	–	–	–	–
C8G C70A	< 1e-05	–	–	< 1e-05	< 1e-05
C10G C34U	< 1e-05	< 1e-05	< 1e-05	< 1e-05	< 1e-05
G9A C16G G63A A64G	< 1e-05	< 1e-05	< 1e-05	< 1e-05	–
C34G G37A G44C C50G A53G G66U	< 1e-05	–	–	–	< 1e-05
A52C U55A	< 1e-05	–	–	–	3.4e-05 ± 1.3e-05
A6G C50G A64U	7.9e-05 ± 3.2e-05	–	–	–	0.000157 ± 2.5e-05
A48U C50A G66U	< 1e-05	–	–	–	–
G32U G63U	< 1e-05	–	–	< 1e-05	< 1e-05
C34A G37U	< 1e-05	–	< 1e-05	< 1e-05	–
A14C A64C G66A	< 1e-05	–	< 1e-05	–	–
G35A G51A	< 1e-05	–	–	–	< 1e-05
G51U U57C	< 1e-05	< 1e-05	–	–	< 1e-05

Variant	self-cleavage kobs at 40 uM GlcN6P (glucosamine-6-phosphate [1]) [s⁻¹]	self-cleavage kobs at 640 uM GlcN6P (glucosamine-6-phosphate [2]) [s⁻¹]	self-cleavage kobs at 160 uM GlcN6P (glucosamine-6-phosphate [3]) [s⁻¹]	self-cleavage kobs at 2500 uM GlcN6P (glucosamine-6-phosphate [4]) [s⁻¹]	self-cleavage kobs at 10000 uM GlcN6P (glucosamine-6-phosphate [5]) [s⁻¹]
A14C G29A C61G	< 1e-05	–	–	–	< 1e-05
A14G C16A U17C A18U C19A A20C	0.000161 ± 4.5e-05	–	–	–	0.00427 ± 0.00081
C10A G32A G51A	< 1e-05	–	–	–	–
C16G U69C	5.13e-05 ± 2e-05	–	–	–	0.000195 ± 5.5e-05
G41A G62A	< 1e-05	< 1e-05	< 1e-05	–	< 1e-05
C11G G59C	5.21e-05 ± 2.3e-05	–	–	–	0.000764 ± 0.00016
G32U A64G C71U	< 1e-05	–	–	0.000459 ± 0.00016	0.000175 ± 3.6e-05
U49A A52G	< 1e-05	–	–	–	–
U45G A52C	< 1e-05	–	–	–	–
G32C C34A	< 1e-05	< 1e-05	< 1e-05	–	< 1e-05
G9U C10G	< 1e-05	< 1e-05	< 1e-05	< 1e-05	< 1e-05
C11A A33U U45A	< 1e-05	< 1e-05	–	< 1e-05	–
G59C U65G	< 1e-05	< 1e-05	–	–	< 1e-05
A15U G37C G38U	< 1e-05	–	–	–	–
G9U G32C A42U	< 1e-05	< 1e-05	–	–	< 1e-05
G41C A64C	< 1e-05	< 1e-05	< 1e-05	< 1e-05	–
A14G A39C G66A	9.51e-05 ± 2.2e-05	–	–	0.00447 ± 0.00085	0.00527 ± 0.0016
G9C C71U	< 1e-05	< 1e-05	< 1e-05	< 1e-05	< 1e-05
C10U A15G G40U	< 1e-05	–	–	–	< 1e-05
A53U U54A C68U	0.00036 ± 9.6e-05	–	–	–	0.013 ± 0.0042
U30A G60U C71U	< 1e-05	–	–	–	< 1e-05
U30A U31C C50G U56G C61G	3.8e-05 ± 1.5e-05	–	–	–	–
C10A U46G C68G	0.000169 ± 4.8e-05	–	–	–	6.66e-05 ± 2.2e-05
A12C U57A G62A	< 1e-05	–	–	–	–
A53C C61G	< 1e-05	< 1e-05	–	–	< 1e-05

Variant	self-cleavage kobs at 40 uM GlcN6P (glucosamine-6-phosphate [1]) [s⁻¹]	self-cleavage kobs at 640 uM GlcN6P (glucosamine-6-phosphate [2]) [s⁻¹]	self-cleavage kobs at 160 uM GlcN6P (glucosamine-6-phosphate [3]) [s⁻¹]	self-cleavage kobs at 2500 uM GlcN6P (glucosamine-6-phosphate [4]) [s⁻¹]	self-cleavage kobs at 10000 uM GlcN6P (glucosamine-6-phosphate [5]) [s⁻¹]
G43A G66U	< 1e-05	–	–	< 1e-05	–
C11A G41A C50G G59U	< 1e-05	–	–	–	< 1e-05
A14U U54A G59C	< 1e-05	–	–	–	< 1e-05
A15G C34A G62U	< 1e-05	–	–	–	< 1e-05
G13U C16U C70U	5.86e-05 ± 1.3e-05	–	–	–	0.00165 ± 0.00029
C11G A36C U55C	< 1e-05	< 1e-05	–	–	–
U30A C50G U54A U69G	5.79e-05 ± 1.6e-05	–	–	–	–
A14C C68G U69A	< 1e-05	–	–	–	–
A33U C67G	< 1e-05	< 1e-05	< 1e-05	–	–
C50U G51U	< 1e-05	–	–	–	< 1e-05
G7U A12U A52G U55G	< 1e-05	–	–	–	< 1e-05
C8A G13A U47G G60U	< 1e-05	–	–	–	–
U46A C50G A53U C70G	0.000147 ± 6.3e-05	–	–	–	0.000126 ± 3.8e-05
A14U A15G A53G	0.000126 ± 2.3e-05	–	–	–	0.0102 ± 0.0019
C10U C16U G38A A48G	< 1e-05	–	–	–	< 1e-05
G9A A14G U30A	< 1e-05	< 1e-05	< 1e-05	–	4.06e-05 ± 1.5e-05
G51A U65C	< 1e-05	–	–	–	< 1e-05
G59U C61U	< 1e-05	< 1e-05	–	–	< 1e-05
A48U C50U	< 1e-05	< 1e-05	< 1e-05	< 1e-05	< 1e-05
A14C U31G U47G	0.00012 ± 1.8e-05	–	–	–	0.00313 ± 0.00068
G32C U47C	< 1e-05	–	< 1e-05	–	–
U56C C68U	< 1e-05	< 1e-05	–	–	–
C8G C71U	< 1e-05	< 1e-05	< 1e-05	< 1e-05	< 1e-05
